Results as given in US20100311955A1 (SHANHAI GUOJIAN BIO TECH INSTITUTE, published 2010).
Where “and” joins values, the source holds several entries; their conditions need not be identical. Identical values can stand only once.

T1: human CD34 (antigen on human myeloid leukemia cell KG-1a) (human, UniProt P28906 32-385)
T1 construct: whole, on cells; Target in all assays is CD34 on KG-1a cells, which highly express it; also called antigen CD34
T1 sequence (looked up): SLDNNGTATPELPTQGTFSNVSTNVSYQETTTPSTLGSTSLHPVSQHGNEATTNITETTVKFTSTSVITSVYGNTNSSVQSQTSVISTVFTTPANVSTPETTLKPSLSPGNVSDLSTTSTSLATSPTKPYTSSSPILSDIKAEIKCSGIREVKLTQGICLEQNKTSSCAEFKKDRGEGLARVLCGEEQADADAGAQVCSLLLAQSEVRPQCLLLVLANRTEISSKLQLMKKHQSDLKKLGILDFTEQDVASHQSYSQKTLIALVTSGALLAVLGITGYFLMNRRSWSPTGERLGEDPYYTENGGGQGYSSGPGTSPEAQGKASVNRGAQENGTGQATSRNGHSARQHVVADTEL


Tests used:
[1] = molecular target: human CD34 (antigen on human myeloid leukemia cell KG-1a) (human) (UniProt P28906); test: flow cytometry competition on KG-1a cells, competitor FITC-My10; mean of 3 tests
[2] = molecular target: human CD34 (antigen on human myeloid leukemia cell KG-1a) (human) (UniProt P28906); test: flow cytometry competition on KG-1a cells, competitor FITC-My10; single test
[3] = molecular target: T1, human CD34 (antigen on human myeloid …); test: flow cytometry competition on KG-1a cells, competitor FITC-My10; mean of 3 tests
Experimental: (§1) Immunology. 2005, 116(4):487-98) was used as control. Triplicate tubes were set for each concentration of the competitive antibody. The IC₅₀ values were calculated, with the maximum fluorescence intensity indicating the average fluorescence intensity obtained in the absence of competitive antibody. Repeating this test for 3 times, and gaining statistical the result, see to Table 2.

[4] = molecular target: T1, human CD34 (antigen on human myeloid …); test: flow cytometry competition on KG-1a cells, competitor FITC-4C8
Experimental: A fixed subsaturating concentration of fluorescently labeled antibody FITC-4C8 and serial dilution of unlabeled purified antibodies were mixed respectively and then added into target KG-1a cells (1×10⁶/ml), and incubated at 4° C. for 60 min, the cells were washed twice with 1% FCS-PBS and examined by FCM using Cellquest software for analysis. Humanized anti-CD3 monoclonal antibody hu12F6 (preparation see to Li B H, Wang H, Dai J X, Ji J J, Qian W Z, Zhang D P, Hou S, Guo Y J. Construction and characterization of a humanized anti-human CD3 monoclonal antibody 12F6 with effective immunoregulation functions. Immunology 2005, 116(4):487-98) was used as control. Triplicate tubes were set for each concentration of the competitive antibody. The IC₅₀ values were calculated, with the maximum fluorescence intensity indicating the average fluorescence intensity obtained in the absence of competitive antibody.

[5] = molecular target: T1, human CD34 (antigen on human myeloid …); test: flow cytometry competition on KG-1a cells, competitor FITC-My10; single test
Experimental: as §1

IC50 [1] | IC50 [2] | IC50 [3] | IC50 [4] | IC50 [5] | Molecule
8.69 µg/mL | 8.67 µg/mL and 9.23 µg/mL and 8.18 µg/mL |  |  |  | murine-derived monoclonal antibody My10 (anti-CD34)
 |  | 1.09 µg/mL | 1.76 µg/mL | 1.11 µg/mL and 1.14 µg/mL and 1.02 µg/mL | humanized antibody h4C8 (h4C8Hb/h4C8Lb) (antibody, human IgG1, V domains shown, CDR-grafted antibody with nine murine framework residues kept; also called humanized anti-CD34 antibody; hu4C8) VH: QIQLVQSGSELKKPGASVKVSCKASGYTFTNYGMNWVRQAPGQGLKWMGWINTNTGEPKYAEEFKGRFALSLDTSVSTAYLQINSLKAEDTAVYFCARGYGNYARGAWLAYWGQGTLVTVSS VL: DVLLTQSPLSLPVTLGQPASISCRSSQTIVHSNGNTYLEWFQQRPGQSPRLLIYQVSNRFSGVPDRFSGSGSGTDFTLKISRVEAEDVGVYYCFQGSHVPRTFGGGTKVEIKR
 |  |  | 1.72 µg/mL |  | anti-human CD34 monoclonal antibody 4C8 (antibody, V domains shown, Mouse hybridoma antibody purified on Protein G; also called murine-derived monoclonal antibody 4C8; FITC-4C8) VH: QIQLVQSGPELKKPGETVNISCKASGYTFTNYGMNWVKQAPGKGLKWMGWINTNTGEPKYAEEFKGRFALSLETSASTAYLQINNLKNEDTATYFCARGYGNYARGAWLAYWGQGTLVTVSA VL: DVLLTQTPLSLPVSLGDQASISCRSSQTIVHSNGNTYLEWFLQKPGQSPKLLIYQVSNRFSGVPDRFSGSGSGTDFTLKISRVEAEDLGVYYCFQGSHVPRTFGGGTKLEIKR
 |  |  | 1.69 µg/mL |  | chimeric antibody c4C8 (antibody, human IgG1, kappa, V domains shown, also called 4C8 chimeric antibody) VH: QIQLVQSGPELKKPGETVNISCKASGYTFTNYGMNWVKQAPGKGLKWMGWINTNTGEPKYAEEFKGRFALSLETSASTAYLQINNLKNEDTATYFCARGYGNYARGAWLAYWGQGTLVTVSA VL: DVLLTQTPLSLPVSLGDQASISCRSSQTIVHSNGNTYLEWFLQKPGQSPKLLIYQVSNRFSGVPDRFSGSGSGTDFTLKISRVEAEDLGVYYCFQGSHVPRTFGGGTKLEIKR
